Reference: PMC8025756
Read-outs that look alike come from different tables or passages of the source.

Tests used:
[1] = target: two-chain factor VII-activating protease (tcFSAP) (human); test: SDS-stable complex formation, SDS-PAGE and Western blot
[2] = target: two-chain factor VII-activating protease (tcFSAP) (human); test: enzyme inhibition kinetics
[3] = target: two-chain factor VII-activating protease (tcFSAP) (human); test: enzyme inhibition kinetics; remark: listed apart in the source
[4] = target: two-chain factor VII-activating protease (tcFSAP) (human); test: enzyme inhibition kinetics; remark: listed apart in the source
[5] = target: two-chain factor VII-activating protease (tcFSAP) (human); test: enzyme inhibition kinetics; remark: listed apart in the source
[6] = target: two-chain factor VII-activating protease (tcFSAP) (human); test: enzyme inhibition kinetics; remark: listed apart in the source

For “recombinant human wild-type plasminogen activator inhibitor-1 (PAI-1) (from UniProt P05121 24-402) (natural protein)”, the stoichiometry N [1] was 1, the second-order inhibition rate constant Ka [2] was 558000 M⁻¹ s⁻¹ and the second-order inhibition rate constant Ka [3] was 443000 M⁻¹ s⁻¹. It also gave a second-order inhibition rate constant Ka [4] of 338000 M⁻¹ s⁻¹, a second-order inhibition rate constant Ka [5] of 623000 M⁻¹ s⁻¹ and a second-order inhibition rate constant Ka [6] of 1.61e+06 M⁻¹ s⁻¹.
